Measured values published in patent US8802414B2, “Methods and materials for reducing biofilms” (priority 2007, dated 2014).

Legend:
Experiment in all cases: Microtiter plate biofilm detachment assay
[1] = system: pre-formed S. lugdunensis biofilms; assay type: cell-based, Staphylococcus lugdunensis; conditions: 2 hours at 37° C.; safranin OD492; 15 clinical isolates
Description: 40 mM sodium metaperiodate (NaIO4, Sigma-Aldrich) in water, 40 μg/mL purified recombinant dispersin B (obtained from Kane Biotech Inc., Winnipeg, Manitoba, Canada) in sodium phosphate buffer (50 mM sodium phosphate (pH 5.8), 100 mM NaCl), 100 μg/mL proteinase K (Roche Applied Science) in 10 mM Tris-HCl pH 7.5, 10 U/mL trypsin (Promega Corp., Madison, Wis.) in 10 mM Tris-HCl pH 7.5, 100 μg/mL chymotrypsin (Sigma-Aldrich) in 10 mM Tris-HCl pH 7.5, and 100 μg/mL thermolysin (Sigma-Aldrich) in 10 mM Tris-HCl pH 7.5 were tested for their ability to detach pre-formed S. lugdunensis biofilms from polystyrene microtiter plate wells. For certain experiments, proteinase K was inactivated by boiling for 40 minutes.
Biofilms grown in TSBgluc1% were formed in wells of microtiter plates and washed twice with deionized water, as described above for the microtiter plate biofilm formation assay. 100 μL of NaIO4, enzyme, or suitable control was carefully added so as not to mechanically detach biofilms on the bottoms of wells. Plates were incubated at 37° C. for 2 hours, and contents of wells were discarded and washed twice with deionized water. Plates were air-dried overnight, stained with 0.1% safranin for 1 minute, and processed as described above to quantify the amount of stained biofilm remaining after treatment, relative to treatment with the control reagent. Four wells were measured for each treatment condition. Assays were repeated two or three times on separate days with similar results.

[2] = system: pre-formed biofilms of S. epidermidis RP62A; assay type: cell-based, Staphylococcus epidermidis; conditions: 2 hours at 37° C.; safranin OD492
[3] = system: pre-formed biofilms of S. carnosus TM300+pCN27; assay type: cell-based, Staphylococcus carnosus; conditions: 2 hours at 37° C.; safranin OD492

B1: thermolysin: protease (Sigma-Aldrich), 100 μg/mL in 10 mM Tris-HCl pH 7.5 (protein, UniProt P00800 233-548, looked up)
Thermolysin: ITGTSTVGVGRGVLGDQKNINTTYSTYYYLQDNTRGNGIFTYDAKYRTTLPGSLWADADNQFFASYDAPAVDAHYYAGVTYDYYKNVHNRLSYDGNNAAIRSSVHYSQGYNNAFWNGSQMVYGDGDGQTFIPLSGGIDVVAHELTHAVTDYTAGLIYQNESGAINEAISDIFGTLVEFYANKNPDWEIGEDVYTPGISGDSLRSMSDPAKYGDPDHYSKRYTGTQDNGGVHINSGIINKAAYLISQGGTHYGVSVVGIGRDKLGKIFYRALTQYLTPTSNFSQLRAAAVQSATDLYGSTSQEVASVKQAFDAVGVK
biofilm detachment compared to buffer [1]: detach S. lugdunensis biofilms selectively

B2: Proteinase K: protease (Roche Applied Science), 100 μg/mL in 10 mM Tris-HCl pH 7.5 (protein, UniProt P06873 106-384, looked up)
Proteinase K: AAQTNAPWGLARISSTSPGTSTYYYDESAGQGSCVYVIDTGIEASHPEFEGRAQMVKTYYYSSRDGNGHGTHCAGTVGSRTYGVAKKTQLFGVKVLDDNGSGQYSTIIAGMDFVASDKNNRNCPKGVVASLSLGGGYSSSVNSAAARLQSSGVMVAVAAGNNNADARNYSPASEPSVCTVGASDRYDRRSSFSNYGSVLDIFGPGTSILSTWIGGSTRSISGTSMATPHVAGLAAYLMTLGKTTAASACRYIADTANKGDLSNIPFGTVNLLAYNNYQA
biofilm detachment compared to buffer [2]: no effect | biofilm detachment compared to buffer [3]: no effect | biofilm detachment compared to buffer [1]: completely removed

B3: heat-inactivated proteinase K: proteinase K inactivated by boiling for 40 minutes (protein, UniProt P06873 106-384, looked up)
Proteinase K: AAQTNAPWGLARISSTSPGTSTYYYDESAGQGSCVYVIDTGIEASHPEFEGRAQMVKTYYYSSRDGNGHGTHCAGTVGSRTYGVAKKTQLFGVKVLDDNGSGQYSTIIAGMDFVASDKNNRNCPKGVVASLSLGGGYSSSVNSAAARLQSSGVMVAVAAGNNNADARNYSPASEPSVCTVGASDRYDRRSSFSNYGSVLDIFGPGTSILSTWIGGSTRSISGTSMATPHVAGLAAYLMTLGKTTAASACRYIADTANKGDLSNIPFGTVNLLAYNNYQA
modifications: heat-inactivated
biofilm detachment compared to buffer [1]: detachment effect was found to be abolished
